Reference: US20240123070A1 (SHANGHAI GENBASE BIOTECHNOLOGY, published 2024)

Target: KRAS G13D antigen (G13D-RT6, SEQ ID NO: 20) loaded on Lovo-DPA0301:DPB0501 cells (human)
Assay: cell-based or functional assay

Row | Binder | TCR Mut RLU/WT RLU
1 | B8.2.4 TCR mutant β97V-E (TCR, V domains shown) V domain 1: AQKITQTQPGMFVQEKEAVTLDCTYDTSDPSYGLFWYKQPSSGEMIFLIYQGSYDQQNATEGRYSLNFQKARKSANLVISASQLGDSAMYFCAMRERTGTASKLTFGTGTRLQVTL V domain 2: DVKVTQSSRYLVKRTGEKVFLECVQDMDHENMFWYRQDPGLGLRLIYFSYDVKMKEKGDIPEGYSVSREKKERFSLILESASTNQTSMYLCASSQTEPPQHFGDGTRLSILE | 0.31 ratio
2 | B8.2.4 TCR mutant β97V-F (TCR, V domains shown) V domain 1: AQKITQTQPGMFVQEKEAVTLDCTYDTSDPSYGLFWYKQPSSGEMIFLIYQGSYDQQNATEGRYSLNFQKARKSANLVISASQLGDSAMYFCAMRERTGTASKLTFGTGTRLQVTL V domain 2: DVKVTQSSRYLVKRTGEKVFLECVQDMDHENMFWYRQDPGLGLRLIYFSYDVKMKEKGDIPEGYSVSREKKERFSLILESASTNQTSMYLCASSQTFPPQHFGDGTRLSILE | 0.31 ratio
3 | B8.2.4 TCR mutant β97V-R (TCR, V domains shown) V domain 1: AQKITQTQPGMFVQEKEAVTLDCTYDTSDPSYGLFWYKQPSSGEMIFLIYQGSYDQQNATEGRYSLNFQKARKSANLVISASQLGDSAMYFCAMRERTGTASKLTFGTGTRLQVTL V domain 2: DVKVTQSSRYLVKRTGEKVFLECVQDMDHENMFWYRQDPGLGLRLIYFSYDVKMKEKGDIPEGYSVSREKKERFSLILESASTNQTSMYLCASSQTRPPQHFGDGTRLSILE | 0.37 ratio
4 | B8.2.4 TCR mutant β97V-P (TCR, V domains shown) V domain 1: AQKITQTQPGMFVQEKEAVTLDCTYDTSDPSYGLFWYKQPSSGEMIFLIYQGSYDQQNATEGRYSLNFQKARKSANLVISASQLGDSAMYFCAMRERTGTASKLTFGTGTRLQVTL V domain 2: DVKVTQSSRYLVKRTGEKVFLECVQDMDHENMFWYRQDPGLGLRLIYFSYDVKMKEKGDIPEGYSVSREKKERFSLILESASTNQTSMYLCASSQTPPPQHFGDGTRLSILE | 0.32 ratio
5 | B8.2.4 TCR mutant β97V-H (TCR, V domains shown) V domain 1: AQKITQTQPGMFVQEKEAVTLDCTYDTSDPSYGLFWYKQPSSGEMIFLIYQGSYDQQNATEGRYSLNFQKARKSANLVISASQLGDSAMYFCAMRERTGTASKLTFGTGTRLQVTL V domain 2: DVKVTQSSRYLVKRTGEKVFLECVQDMDHENMFWYRQDPGLGLRLIYFSYDVKMKEKGDIPEGYSVSREKKERFSLILESASTNQTSMYLCASSQTHPPQHFGDGTRLSILE | 0.44 ratio
6 | B8.2.4 TCR mutant β97V-M (TCR, V domains shown) V domain 1: AQKITQTQPGMFVQEKEAVTLDCTYDTSDPSYGLFWYKQPSSGEMIFLIYQGSYDQQNATEGRYSLNFQKARKSANLVISASQLGDSAMYFCAMRERTGTASKLTFGTGTRLQVTL V domain 2: DVKVTQSSRYLVKRTGEKVFLECVQDMDHENMFWYRQDPGLGLRLIYFSYDVKMKEKGDIPEGYSVSREKKERFSLILESASTNQTSMYLCASSQTMPPQHFGDGTRLSILE | 0.35 ratio
7 | B8.2.4 TCR mutant β97V-L (TCR, V domains shown) V domain 1: AQKITQTQPGMFVQEKEAVTLDCTYDTSDPSYGLFWYKQPSSGEMIFLIYQGSYDQQNATEGRYSLNFQKARKSANLVISASQLGDSAMYFCAMRERTGTASKLTFGTGTRLQVTL V domain 2: DVKVTQSSRYLVKRTGEKVFLECVQDMDHENMFWYRQDPGLGLRLIYFSYDVKMKEKGDIPEGYSVSREKKERFSLILESASTNQTSMYLCASSQTLPPQHFGDGTRLSILE | 0.58 ratio
8 | B8.2.4 TCR mutant β97V-G (TCR, V domains shown) V domain 1: AQKITQTQPGMFVQEKEAVTLDCTYDTSDPSYGLFWYKQPSSGEMIFLIYQGSYDQQNATEGRYSLNFQKARKSANLVISASQLGDSAMYFCAMRERTGTASKLTFGTGTRLQVTL V domain 2: DVKVTQSSRYLVKRTGEKVFLECVQDMDHENMFWYRQDPGLGLRLIYFSYDVKMKEKGDIPEGYSVSREKKERFSLILESASTNQTSMYLCASSQTGPPQHFGDGTRLSILE | 0.26 ratio
9 | B8.2.4 TCR mutant β97V-N (TCR, V domains shown) V domain 1: AQKITQTQPGMFVQEKEAVTLDCTYDTSDPSYGLFWYKQPSSGEMIFLIYQGSYDQQNATEGRYSLNFQKARKSANLVISASQLGDSAMYFCAMRERTGTASKLTFGTGTRLQVTL V domain 2: DVKVTQSSRYLVKRTGEKVFLECVQDMDHENMFWYRQDPGLGLRLIYFSYDVKMKEKGDIPEGYSVSREKKERFSLILESASTNQTSMYLCASSQTNPPQHFGDGTRLSILE | 0.26 ratio
10 | B8.2.4 TCR mutant β97V-I (TCR, V domains shown) V domain 1: AQKITQTQPGMFVQEKEAVTLDCTYDTSDPSYGLFWYKQPSSGEMIFLIYQGSYDQQNATEGRYSLNFQKARKSANLVISASQLGDSAMYFCAMRERTGTASKLTFGTGTRLQVTL V domain 2: DVKVTQSSRYLVKRTGEKVFLECVQDMDHENMFWYRQDPGLGLRLIYFSYDVKMKEKGDIPEGYSVSREKKERFSLILESASTNQTSMYLCASSQTIPPQHFGDGTRLSILE | 0.61 ratio
11 | B8.2.4 TCR mutant β97V-S (TCR, V domains shown) V domain 1: AQKITQTQPGMFVQEKEAVTLDCTYDTSDPSYGLFWYKQPSSGEMIFLIYQGSYDQQNATEGRYSLNFQKARKSANLVISASQLGDSAMYFCAMRERTGTASKLTFGTGTRLQVTL V domain 2: DVKVTQSSRYLVKRTGEKVFLECVQDMDHENMFWYRQDPGLGLRLIYFSYDVKMKEKGDIPEGYSVSREKKERFSLILESASTNQTSMYLCASSQTSPPQHFGDGTRLSILE | 0.78 ratio
12 | B8.2.4 TCR mutant β97V-Q (TCR, V domains shown) V domain 1: AQKITQTQPGMFVQEKEAVTLDCTYDTSDPSYGLFWYKQPSSGEMIFLIYQGSYDQQNATEGRYSLNFQKARKSANLVISASQLGDSAMYFCAMRERTGTASKLTFGTGTRLQVTL V domain 2: DVKVTQSSRYLVKRTGEKVFLECVQDMDHENMFWYRQDPGLGLRLIYFSYDVKMKEKGDIPEGYSVSREKKERFSLILESASTNQTSMYLCASSQTQPPQHFGDGTRLSILE | 0.3 ratio
13 | B8.2.4 TCR mutant β97V-K (TCR, V domains shown) V domain 1: AQKITQTQPGMFVQEKEAVTLDCTYDTSDPSYGLFWYKQPSSGEMIFLIYQGSYDQQNATEGRYSLNFQKARKSANLVISASQLGDSAMYFCAMRERTGTASKLTFGTGTRLQVTL V domain 2: DVKVTQSSRYLVKRTGEKVFLECVQDMDHENMFWYRQDPGLGLRLIYFSYDVKMKEKGDIPEGYSVSREKKERFSLILESASTNQTSMYLCASSQTKPPQHFGDGTRLSILE | 0.48 ratio
